Results: US11448657B2, “Methods and kits for assessing Heparanase procoagulant activity, compositions comprising Heparanase, and methods for the treatment of coagulation-related disorders” (RAMBAM MED-TECH, priority 2011, dated 2022)

Assays:
[1] = test system: ICR mice; experiment: Intra-peritoneal injection of heparanase to ICR mice, blood drawn after 4 hours (ELISA); assay type: in vivo; details: for IL-6 level: heparanase intra-peritoneal
Description: Heparanase or LPS were injected to ICR mice and blood was drawn after 4 hours. Intra-peritoneal injection of heparanase (0.5 μg/mg) compared to PBS injection increased TAT (p<0.05) (18A) and D-Dimer (p<0.05) (18B) levels to similar levels induced by LPS (5 μg/mg).
(§1) FIG. 19: IL-6 as a marker of sepsis severity Heparanase, LPS and LPS+heparanase were injected intra-peritoneal to ICR mice. Four hours later the blood was drawn and IL-6 level was measured by ELISA.
(§2) Methods: ICR mice, heparanase knock-out mice and heparanase over-expression mice were studied. Sepsis was induced by intra-peritoneal injection of lipopolysaccharides (LPS). Inhibitory peptides to TF/heparanase complex (number 11, 22, 5, 6, 7, 12, and 21 [SEQ IDs: 1-7]) were injected intra-peritoneal half an hour after heparanase or LPS. After 4 hours blood was obtained via sub-mandibular plexus puncture followed by mice sacrificing. Levels of thrombin-antithrombin (TAT), D-Dimer and IL-6 were tested using ELISA. Western blot to plasma factor VII and immunostaining of fibrinogen in lung, kidney and spleen were performed.

[2] = target: T1, TF-factor VIIa complex (Homo sapiens, UniProt P13726); experiment: Thrombin generation: prothrombin added to the factor Xa generation assay (chromogenic substrate for thrombin); assay type: biochemical; details: prothrombin 222 μM added, 15 min 37° C.
T1 construct: purchased American Diagnostica (Stanford, Conn., USA)
Description: FIG. 1D. Heparanase increases thrombin levels. Recombinant human TF, recombinant human factor VIIa, plasma-derived human factor X, and plasma-derived human prothrombin were incu-bated (15 min, 37° C.) in a total volume of 125 μL. Chromogenic substrate for the detection of thrombin was then added (1 mM). Human recombinant heparanase (Hepa) was added prior to the addition of the coagulation factors. The mean value±SD of three independent experiments is shown. Note a 3-fold increase in coagulation activity in the presence of heparanase.
In order to verify that factor Xa produced in the presence of heparanase is active, thrombin generation, the next step in the coagulation cascade, was examined. The experiment described above (FIG. 1A) was repeated and plasma-derived human prothrombin (222 μM) was added following the addition of factor X. After 15 minutes at 37° C., chromogenic substrate for thrombin was added (1 mM). In the presence of heparanase, thrombine generation was increased (FIG. 1D).

[3] = test system: TF-heparanase interaction; experiment: Co-immunoprecipitation of TF and heparanase; assay type: binding, human; details: purified TF and GS3 active heparanase 1 μg/mL each
Description: FIGS. 7A-7B: Direct interaction between heparanase and TF FIG. 7A. Co-immunoprecipitation. Purified TF (1 μg/mL) and GS3 active heparanase (1 μg/mL) proteins were incubated with beads coupled to polyclonal anti-TF (upper panel), or anti-heparanase (lower panel) antibodies. Bound proteins were analyzed by immunoblotting for the presence of heparanase (upper panel) or TF (lower panel), using the respective monoclonal antibody.
The interaction between TF and heparanase was analyzed by co-immunoprecipitation (Co-IP). The ProFound™ Co-Immunoprecipitation Kit in which the antibody is coupled to gel support, was employed according to the manufacturer's instruction (Pierce, Rockford, Ill., USA). Briefly, coupling gel was washed with coupling buffer. Polyclonal anti-TF or polyclonal anti-heparanase (1453) antibodies (100 μg) and 5 M sodium cyanoborohydride, were added to the gel support and incubated at 4° C. for 4 hours. The gel was then washed with quenching buffer and incubated with the quenching buffer and sodium cyanoborohydride at 20° C. for 30 minutes. Next, the gel was washed 4 times with wash solution, once with elution buffer, and twice with coupling buffer. Purified proteins (0.5 μg) were added to the gel and incubated for 2 hours at 4° C. […]

[4] = target: T2, factor X (Homo sapiens, UniProt P00742); experiment: Direct activation of factor X by heparanase; assay type: biochemical; details: heparanase with factor X, 15 min 37° C.
T2 construct: plasma-derived human factor X; purchased American Diagnostica (Stanford, Conn., USA); host or cells: purified from human plasma

[5] = target: T3, prothrombin (Homo sapiens, UniProt P00734); experiment: Direct activation of prothrombin by heparanase; assay type: biochemical; details: heparanase with prothrombin, 15 min 37° C.
T3 construct: plasma-derived human prothrombin; purchased American Diagnostica (Stanford, Conn., USA); host or cells: purified from human plasma

[6] = test system: ICR mice; experiment: LPS-induced sepsis in ICR mice; assay type: in vivo
Description: as §1
Heparanase, LPS and LPS+heparanase were injected intra-peritoneal to ICR mice. Four hours later the blood was drawn and thrombin-antithrombin (TAT) (20A) and D-dimer (20B) levels were evaluated by ELISA. Levels of TAT and D-dimer were reduced in the LPS+heparanase group compared to LPS alone in accordance with a severe activation of the coagulation system (p<0.05).
as §2

[7] = target: T4, TF (Homo sapiens, UniProt P13726); experiment: Far-western analysis of heparanase binding to TF and TFPI; details: heparanase 1 μg/mL, 2 h, 4° C.; TF 100 ng, TFPI 100 ng
T4 construct: purchased American Diagnostica (Stanford, Conn., USA)
Description: FIG. 7B. Far-western analysis. Recombinant TF (100 ng) and TFPI (100 ng) were resolved by SDS-PAGE under reducing conditions using a 10% gradient polyacrylamide gel. After electrophoresis, proteins were transferred to a polyvinylidene fluoride membrane. The membrane was incubated for 2 h with GS3 active heparanase protein (1 μg/mL, 4° C.). Next, the membrane was probed with anti-heparanase antibody followed by horseradish peroxidase-conjugated secondary antibody and chemiluminescence substrate, as described in the Design and Methods section.

[8] = heparanase 0.5 μg/mg intra-peritoneal, 4 hours, compared to PBS
[9] = LPS+heparanase compared to LPS alone, 4 hours
[10] = heparanase half an hour following LPS

T2 sequence (P00742 183-488 limits assumed): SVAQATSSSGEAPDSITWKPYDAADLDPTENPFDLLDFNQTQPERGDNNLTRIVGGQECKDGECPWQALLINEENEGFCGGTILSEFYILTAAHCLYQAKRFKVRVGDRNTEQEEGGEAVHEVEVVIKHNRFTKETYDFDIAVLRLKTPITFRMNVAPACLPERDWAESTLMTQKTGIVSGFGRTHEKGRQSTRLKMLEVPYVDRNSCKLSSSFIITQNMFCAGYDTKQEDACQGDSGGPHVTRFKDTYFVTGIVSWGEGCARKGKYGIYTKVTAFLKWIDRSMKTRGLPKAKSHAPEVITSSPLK
T2 sequence (P00742 41-179 limits assumed): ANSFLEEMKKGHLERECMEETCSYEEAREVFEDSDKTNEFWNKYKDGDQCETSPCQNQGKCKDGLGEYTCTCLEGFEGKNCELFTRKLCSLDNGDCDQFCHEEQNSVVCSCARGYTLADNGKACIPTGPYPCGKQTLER
T4 sequence (P13726 33-295): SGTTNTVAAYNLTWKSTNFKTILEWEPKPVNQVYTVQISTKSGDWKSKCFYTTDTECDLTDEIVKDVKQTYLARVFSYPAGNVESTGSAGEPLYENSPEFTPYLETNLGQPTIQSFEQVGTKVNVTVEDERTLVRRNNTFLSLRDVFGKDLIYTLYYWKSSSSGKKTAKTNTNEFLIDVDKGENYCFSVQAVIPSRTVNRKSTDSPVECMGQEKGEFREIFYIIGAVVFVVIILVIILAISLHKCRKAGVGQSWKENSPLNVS
T1 sequence (P13726 33-295): as above
T1 sequence (P08709 61-212 partner limits assumed): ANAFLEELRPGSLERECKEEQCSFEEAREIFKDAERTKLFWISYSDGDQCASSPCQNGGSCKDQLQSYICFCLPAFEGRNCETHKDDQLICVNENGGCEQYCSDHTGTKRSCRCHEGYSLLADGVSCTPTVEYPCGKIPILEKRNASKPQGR
T1 sequence (P08709 213-466 partner limits assumed): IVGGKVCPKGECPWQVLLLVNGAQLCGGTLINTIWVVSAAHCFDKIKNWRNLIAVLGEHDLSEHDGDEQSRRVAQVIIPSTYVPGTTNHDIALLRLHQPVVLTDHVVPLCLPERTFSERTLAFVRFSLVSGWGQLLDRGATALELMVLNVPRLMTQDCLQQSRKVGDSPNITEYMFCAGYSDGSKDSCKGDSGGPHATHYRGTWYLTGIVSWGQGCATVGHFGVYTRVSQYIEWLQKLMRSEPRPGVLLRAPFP

B1: heparanase: single chain GS3 active heparanase, comprised of the 8 kDa and 50 kDa heparanase heterodimer (8+50), recombinant human (protein, listed as Homo sapiens)
chain 1: DPAQDVVDLDFFTQEPLHLVSPSFLSVTIDANLATDPRFLILLGSPKLRTLARGLSPAYLRFGGTKTDFLIFDPKKE
chain 2: DPGKKFKNSTYSRSSVDVLYTFANCSGLDLIFGLNALLRTADLQWNSSNAQLLLDYCSSKGYNISWELGNEPNSFLKKADIFINGSQLGEDFIQLHKLLRKSTFKNAKLYGPDVGQPRRKTAKMLKSFLKAGGEVIDSVTWHHYYLNGRTATREDFLNPDVLDIFISSVQKVFQVVESTRPGKKVWLGETSSAYGGGAPLLSDTFAAGFMWLDKLGLSARMGIEVVMRQVFFGAGNYHLVDENFDPLPDYWLSLLFKKLVGTKVLMASVQGSKRRKLRVYLHCTNTDNPRYKEGDLTLYAINLHNVTKYLRLPYPFSNKQVDKYLLRPLGPHGLLSKSVQLNGLTLKMVDDQTLPPLMEKPLRPGSSLGLPAFSYSFFVIRNAKVAACI
modifications: single-chain GS3 linker
signs of illness ([1]; heparanase 0.5 μg/mg intra-peritoneal): mice did not show signs of illness | D-dimer level [1, 8]: increased | TAT level [1, 8]: increased | IL-6 level ([1]; 4 hours): levels of IL-6 did not rise | IL-6 level ([1]; 4 hours, listed as Heparanase): did not increase IL-6 level | increase in coagulation activity (thrombin level) [2]: 3 fold | interaction with TF [3]: interacts with TF | factor Xa generation from factor X alone [4]: no factor Xa was generated | thrombin generation from prothrombin alone [5]: no thrombin was generated | D-dimer level [6, 9]: reduced levels | IL-6 level [6, 9]: further augmented IL-6 level compared to LPS alone | TAT level [6, 9]: reduced levels | blood leak from puncture [6, 10]: profuse blood leak from puncture | factor VII by western blot [6, 10]: reduced levels | fibrinogen by immunostaining [6, 10]: reduced levels | levels of IL-1 [6, 10]: maximal levels of IL-1 | binding to TF and TFPI on membrane [7]: A clear band was revealed in the TF-heparanase lane but not in the TFPI-heparanase lane
